Data from publication PMC7736253 (Nature plants, 2020).

B1: Rubisco large subunit (in the native holoenzyme) (natural protein, UniProt P00877 3-475, looked up)
chain: PQTETKAGAGFKAGVKDYRLTYYTPDYVVRDTDILAAFRMTPQLGVPPEECGAAVAAESSTGTWTTVWTDGLTSLDRYKGRCYDIEPVPGEDNQYIAYVAYPIDLFEEGSVTNMFTSIVGNVFGFKALRALRLEDLRIPPAYVKTFVGPPHGIQVERDKLNKYGRGLLGCTIKPKLGLSAKNYGRAVYECLRGGLDFTKDDENVNSQPFMRWRDRFLFVAEAIYKAQAETGEVKGHYLNATAGTCEEMMKRAVCAKELGVPIIMHDYLTGGFTANTSLAIYCRDNGLLLHIHRAMHAVIDRQRNHGIHFRVLAKALRMSGGDHLHSGTVVGKLEGEREVTLGFVDLMRDDYVEKDRSRGIYFTQDWCSMPGVMPVASGGIHVWHMPALVEIFGDDACLQFGGGTLGHPWGNAPGAAANRVALEACTQARNEGRDLAREGGDVIRSACKWSPELAAACEVWKEIKFEFDTIDKL

What was measured:
[1] = molecular target: Rubisco holoenzyme (native Rubisco purified from Chlamydomonas cells) (Chlamydomonas reinhardtii (endogenous in strain cMJ030)) (UniProt P00877); assay: cryo-EM structure
[2] = molecular target: Rubisco holoenzyme (native Rubisco purified from Chlamydomonas cells) (Chlamydomonas reinhardtii (endogenous in strain cMJ030)) (UniProt P00877); assay: SPR
[3] = molecular target: the molecule itself; assay: cryo-EM structure

Row | Molecule | stoichiometry N [1] | Kd [2] [µM] | stoichiometry N [3]
1 | EPYC1_(49-72) peptide | < 8 | 3000 | 
2 | EPYC1_(106-135) peptide | < 8 |  | 
3 | B1 |  |  | 8
